Assay results published in the nanobody polyreactivity screen of Harvey et al. (2022).

Test: yeast display, Sf9 membrane polyspecificity reagent, FACS + sequencing; frameworks hold sequencing errors
Method in brief: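 Nanobodies came from a synthetic yeast display library in Saccharomyces cerevisiae BJ5465, induced with galactose for 36–48 hours and stained for 1 hour at 4 °C with 10% biotinylated, detergent-solubilized Sf9 membrane reagent. Cells were enriched on streptavidin microbeads and then FACS-sorted, with low and high (top ~1%) gates set on anti-HA fluorescence for expression and streptavidin fluorescence for reagent binding. Each polyreactivity label reflects the gate a clone came from. Genes were amplified by colony PCR, sequenced by MiSeq 2 × 250 and filtered by CDR length.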

With “QVQLVESGGGLVQAGGSLRLSCAASGRIFTGNVMGWYRQAPGKERELFAAISYGGGSTNYADSVKGRFTISRDNAKNTVYLQMNSLKPEDTAVYYCAAGIKRYLSYYTRYGYWGQGTQVTVSS” the “polyreactivity (PSR sort gate)” value was “high polyreactivity”.
For “QVQLVESGGGLVQAGGSLRLSCAASGRTFWLNAMGWYRQAPGKERELVATISRGGSTNYADSVKGRFTISRDNANNTVYLQMNSLKPEDTAVYYCAARRYYWLRGYNYWGQGTQVTVSS”, the “polyreactivity (PSR sort gate)” value was “high polyreactivity”.
For “QVQLVESGGGLVQAGGSLRLSCAASGFTFYYYTMGRYRQAPGKEIELLADISSGDRTYYADSVKGRFTISRDNAKNTVYLQMNSLKPEDTAVYYCAAPAKYYTRFGHYNLNQDYDSWGQGTQVTVSS”, the “polyreactivity (PSR sort gate)” value was “low polyreactivity”.
With “QVQLVESGGGLVQAGGSLRLSCAASGYIFSINAMGWYRQAPGKERELVAAITSSGGSTYYADSVKGRFTISRDNAKNTVYLQMNSLKPEDTAVYYCNAYVRRTRDYDYWGQGTQVTVSS” the “polyreactivity (PSR sort gate)” value was “high polyreactivity”.
With “QVQLVESGGGLVQAGGSLRLSCAASGSIFTYNAMGWYRQAPGKDRELVAAIRLSGGSTYYADSVKGRFTISRDNAKNTVYLQMTSLNPEDTAVYYCAAESAAASGVYSVEYDYWGQGTQVTVSS” the “polyreactivity (PSR sort gate)” value was “low polyreactivity”.
With “QVQLVESGGGLVQAGGSLRLSCAASGTFRVYAMGWYRQAPGKERELVAAISRSGTSTYYSDSVKGRFTISRDNAKNTVYLQMNSLKPEDTAVYYCNDVVRGQYDWGQGTQVTVSS” the “polyreactivity (PSR sort gate)” value was “high polyreactivity”.
For “QVQHVESRGGLVQAGGSLRLSCAASGLILSGYTMGWYRPAPGKERELVAAISRSGGSTYYADSVKGRFTISRDNAKNTVYLQMNSLKPEDTAVYYCAKVPIYRYGVWAMNYWGQGTQVTVSS”, the “polyreactivity (PSR sort gate)” value was “high polyreactivity”.
With “QVQLVESGGGLVQAGGSLRLSCAASGSTFVVNTMGWYRQAPGKERELVATISDIGSSTDYADSVKGRFTISRDNAKNTVYLQMNSLKPEDTAVYYCAASIDDIITDDFYWVSWAYYYWGQGTQVTVSS” the “polyreactivity (PSR sort gate)” value was “low polyreactivity”.
With “QVQLVESGGGLVQAGGSLRLTCAASGSTFGVYAMGWYRQAPRKDRELFAAISSSTGSTYYADSVKGRFTISRHKAKNTVYLQRNSLKPEDTAVYYRAAAGYGKVRGDYWGQGTQVTVSS” the “polyreactivity (PSR sort gate)” value was “low polyreactivity”.
In the case of “QVQLVESGGGLVQAGGSLRLTCAASGNTFFFNTMGWYRQAPGKERELVAVISSSGGTYYADSVKGRFTISRDNAKNTVYLQMNSLKQEDTAVYYCNADWHTHGYPTGKTGFKYYYWGQGTQVTVSS”, the “polyreactivity (PSR sort gate)” value is reported as “low polyreactivity”.
In the case of “QVQLVESGGGLVQAGGSLRLSCAASGSIFWFYAMGWYRQAPGKERELVAAISYSGGITYYADSVKGRFTISRDNAKNTVYLQMNSLKPEDTAVYYCNADGPSTPWVDYGYWGQGTQVTVSS”, the “polyreactivity (PSR sort gate)” value is reported as “low polyreactivity”.
For “KVQLVESGGVLVQAGGSLRLICAASGRTFYGYAMGWSRQAPGKERELVAGITSGGSTTYADSVKGRFTISRDHAKKTVYLQMNSLKPEDTAVYYCAKKWYRTTRAYVFRSYDYWGQGTQVTVSS”, the “polyreactivity (PSR sort gate)” value was “high polyreactivity”.
With “QVHLVESGGGLVLAGGSLRLSCAASGSTFGINAMGWYRQAPGKEREFVASISWSTGTTYYADSVKGRFTISRDNAKNTVYLQMNSLKPEDTAVYSCAAVDYYWGYEQWYDYWGQGTQVTVSS” the “polyreactivity (PSR sort gate)” value was “high polyreactivity”.
For “QVQHVESRGGIVQAGGSLRLSCAASGFILYFNAMGWYRQAPGKERELVAAITSDGGSTYYADSVKGRFTISRDNAKNTVYLQMNSLKPEDTAVYYCAADASTWYTEEYWGQGTQVTVSS”, the “polyreactivity (PSR sort gate)” value was “low polyreactivity”.
With “QVQLVESGGGLVQAGGSLRLSCAASGRTFYRYTMGWYRQAPAKERELVAAISWSGGSTYYADSVKGRFTISRDNAKNTVYLQMNSLKPEDTAVNYCAKATYWLYVQWYTYGYWGQGTQVTVSS” the “polyreactivity (PSR sort gate)” value was “high polyreactivity”.
For “QVQIVDSGGGLVQAGGSLSLSCAASGSTFRGYAMGWYRQAPGKERELVAAITGSGDRTRYADSVKGRFTISRDNAKNTVYLQKNSLKPADTAVNYCAKVWPHWAYYSWGQGTQVTLSS”, the “polyreactivity (PSR sort gate)” value was “high polyreactivity”.
In the case of “QVQLVESVGGLVQAGGSLRLTCAASGSIFKYYDMGWYRQAPGTERELVAAISSNGGRTYYADSVKGRFTISRDNAKNTDYLQMNSLKPEDTAVYYCARRFRRTGESEYDYWGQGTQVNVSS”, the “polyreactivity (PSR sort gate)” value is reported as “high polyreactivity”.
In the case of “QVQLVESGGGLVQAGGSLRLSCAASGRTFPNNAMGWYRQAPGKERELVAVITWSGGSTYYADSVKGRFTISRDNAKNTVYLQMNSLKPEDTAVYYCATDYTGKWKDHYYYWGQGTQVTVSS”, the “polyreactivity (PSR sort gate)” value is reported as “low polyreactivity”.
In the case of “QVQLVESGGGLVQAGGSLRLSCAASGRIFYNYAMGWYRQAPGKERELVAAISGSGGSTYYADSVKGRFTISRDNAKNTVYLQMNSLKPEDTAVYYCAKDYRWDRKFDYWGQGTQVTVSS”, the “polyreactivity (PSR sort gate)” value is reported as “low polyreactivity”.
For “QVQLVESGGGLVQAGGSLRLSCASSGRTFPGNAMGWYRQAPGKERELVAAISWSGTRTYYADSVKGRFTISRDNAKNTVYLQMNSLKPEDTAVYYCNVVVKGAWDYYPYAYWGQGTQVTVSA”, the “polyreactivity (PSR sort gate)” value was “high polyreactivity”.
With “QVQLVESGGGLVQAGGSLRLSCAASGSIYRRNAMGWYRKAPRKERELVAAISSNGGSTYYADSVKGRFTISRDNAMNTVYLQMNSLKPEDSAVYYCAASPSGWRYDYWGQGTQVTVSS” the “polyreactivity (PSR sort gate)” value was “high polyreactivity”.
With “QVQLVESGGGLVQAGGSLRLSCAASGIIFDDYAMGWYRQAPGKERELVAAISVSGGSTYYADSVKGRFTISRDNAKNTVYLQMNSLKPEDTAVYYCAARLRQPYTRGNYWGQGTQVTVSS” the “polyreactivity (PSR sort gate)” value was “high polyreactivity”.
In the case of “QVQLVESGGGLVQAGGSLRLSCAASGSIFYGYAMGWYRQAPGKERELVASITSSGGSTYYADSVKGRFTISRDNAKNTVYLQMNSLKPEDTAVYYCNADGRPDWYVVRGGFEYWGQGTQVTVSS”, the “polyreactivity (PSR sort gate)” value is reported as “low polyreactivity”.
For “QVQLVESGGGLVQAGGSLRLSCAASGGIFDTYAMGWYRQAPGKERELVAAISRRGGNTYYADSVKGRFTISRDNAKNTVYLQMNSLKPEDTAVYYCAAYYHGRMDYWGQGTQVTVSS”, the “polyreactivity (PSR sort gate)” value was “high polyreactivity”.
With “QVQLVESGGGLVQAGGSLRLSCAASGLTFPYYAMGWYRKAPGKERELVAGISDSGGSTYYADSVKGRFTISRDNAKNTVYLQMNSLKPEDTAVYYCAAQGVDSYYENDYWGQGTQVTVSS” the “polyreactivity (PSR sort gate)” value was “high polyreactivity”.
With “QVQLVESGGGLVQAGGSLRLSCAASGRIFSHYAMGWYRQAPGKERELVAAITSDGSTNYADSVKGRFTISRDNAKNTVYLQMNSLKPEDTAVYYCADYDYWGQGTQVTVSS” the “polyreactivity (PSR sort gate)” value was “low polyreactivity”.
With “QVQLVESGGGLVQAGGSLRLSCAASGRTFFYYAMGSYRQAPGKERELVATITKRGGSTYYADSVKGRFTISRDNAKNTVYLQMNSLKPEDTAVYYCNAAGNPVSRYHYDYWGQGTQVTVSS” the “polyreactivity (PSR sort gate)” value was “high polyreactivity”.
In the case of “QVQLVESGGGLVQAGGSLRLSCAASGRTFRYNAMGWYRQAPGKERELVAAISRGANTNYADSVKGRFTISRDNAKNTVYLQMNSLKPADTAVYYCAAVPGYRFYYWGQGTQVTVSS”, the “polyreactivity (PSR sort gate)” value is reported as “high polyreactivity”.
For “QVQLVESGGGIVQAGGSLRLSCAASGSTFYLYAMGWYRQAPGKERELVAAISTVGSTNYADSVNGRFTISRDNAKNTVYLQMNSLKPEDTAVYYCNAEYYGVVEYDYWGHGTQVTVSS”, the “polyreactivity (PSR sort gate)” value was “low polyreactivity”.
With “QVQLVESGGGLVQAGGILRLSCAASGIIFSEYAMGWYRQAPGKERELVAAISKSSGSTRYADSVKGRFTISRDNAKNTVYLQMNSLKPEDTAVYYCAREYRWRYGYDYWGQGTQVTVSS” the “polyreactivity (PSR sort gate)” value was “high polyreactivity”.
For “QVQLVESGGGLVQAGGSLRLSCAAAGFIFQYNGMGWYRQAPGKERELVAAITSSVNTYYADSVKGRFTISRDNAKNTVYLQMNSLKPEDTAVYYCNADDPDKSWGQGTQVTVSS”, the “polyreactivity (PSR sort gate)” value was “low polyreactivity”.
With “QVQLVESGGGLVQAGGSLRLSCAASGSIFLAYAMGCYRQATAKEREFVAANSFSDGSTYYADSVKGRFTISRDNAKNTVYLQMNSLKPEDTAVYYCNKGASPDDYDYWGQGTQVTESS” the “polyreactivity (PSR sort gate)” value was “low polyreactivity”.
For “QVQLVESGGGLVQAGGSLRLSCAASGSTFSKNAMGWNRQAPGKERELFAAIRSRGGSTYYADSVKGRFTISRDNAKNTVYLQMNSLKPEDTAVYYCNKVRAYECDYWGQGTKVTVSS”, the “polyreactivity (PSR sort gate)” value was “high polyreactivity”.
With “QVQLVESGGGLVQAGGSLRLSCAASGFTLYAYVMGWYRQAPGKERDLVAAISRSGGSTYYADSVKGRFTISRDNAKNTVYLQMNSLKPEDTAVYYCAAQYKRYHRLYGYWGQGTQVTVSS” the “polyreactivity (PSR sort gate)” value was “high polyreactivity”.
With “QVQLVESGGGLVQAGGSLRLSCAASGRIFSYYAMGWYRQAPGKERELVAAISRSGGRTYYADSVKGRFTISRDNAKNTVYLQMNSLKPEDTAVYYCAALQRDYSGRYPVSMYYWGQGTQVTVSS” the “polyreactivity (PSR sort gate)” value was “high polyreactivity”.
For “QVQLVESGGGLVQAGGSLRLICAASGSIFVGYAMGWYRQAPGKERELVAAISSNGGSTYYAYSVKGRFTISRDNAKNTVYLQMNSLKPEDTAVYYCAAGVRRVYASGHGAYGYWGQGTQVTVSS”, the “polyreactivity (PSR sort gate)” value was “low polyreactivity”.
With “QVQLVESGGGLVQAGGSLRLSCAASGFTFVGYAMGWYRQAPGKERELVASINYSGGSTYYADSVKGRFTISRDNAKNTVYVQMNSLNPEDTAVYYCAAGGYPWYLRRGGFACYDYWGQGTQVTVSS” the “polyreactivity (PSR sort gate)” value was “low polyreactivity”.
For “QVQLVESGGGLVKAGGSLRLSCAASGITFSYYTMGWYRQAPGKEREFVATISQSSGSTYYADSVKGRFTISRDNAKNTVYLQMNSLKPEDTAVYYCNARRDYEWESWNVDDDYWGQGTQVTVSS”, the “polyreactivity (PSR sort gate)” value was “high polyreactivity”.
With “QVQLVESGGGLGQAGGSLRLSCAASGSIRDSNAMGWYRQAPGKERELVAAITSGGSTYYADSVKGRFTISRDNAKNTVYLQMNSLKPEDTAVYYCAAAYLGYGAVQPSYEGGYWGQGTQVTVSS” the “polyreactivity (PSR sort gate)” value was “low polyreactivity”.
With “QVQLVESGGGLVQAGGSLRLSCAASGFTFWYYSMGWYRQAPGKERELVASISRTGGTTYYADSVKGRFTISRDNAKNTVYLQLNSLKPEDTAVYYCNARPKVYYREYDYWGQGTQVTVSS” the “polyreactivity (PSR sort gate)” value was “high polyreactivity”.
With “QVQLVESGGGLVQAGGSLRLSCAASGRIFTYYAMGWYRQAPGKERELVAAISTRGGNTYYADSVKGRFTISRDNAKNSVYLQMNSLKPEDTAVYYCSKENYYGGGFDYWGQGTQVTVSS” the “polyreactivity (PSR sort gate)” value was “high polyreactivity”.
In the case of “QVQLVESGGGLVQAGGSLRLSCAASGRTFYEYAMGWYRQAPGKERELVAAITRSGGSTYYADSVKGRFTISRDNAKNTVYLQMNSLKPEDTAVYYCAAYRLQYRVRYYTAYDYWGQGTQVTVSS”, the “polyreactivity (PSR sort gate)” value is reported as “high polyreactivity”.
For “QVQLVESGGGLVQAGGSLRLSCAASGSTLVANAMGWYRQAPGKERELVAAISSGGITYYADSVKGRFTISRDNAKNTVYLQMHSLKPEDTAVYYCAARIRGTWKYGYWGQGTQVTVSS”, the “polyreactivity (PSR sort gate)” value was “low polyreactivity”.
